Assay results published in the nanobody polyreactivity screen of Harvey et al. (2022).

Assay: yeast display, Sf9 membrane polyspecificity reagent, FACS + sequencing; frameworks hold sequencing errors
How it was run: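 Nanobodies from a synthetic yeast display library (Saccharomyces cerevisiae BJ5465), induced 36–48 hours with galactose, were stained 1 hour at 4 °C with 10% biotinylated, detergent-solubilized Sf9 membrane reagent, enriched on streptavidin microbeads, then FACS-sorted. Anti-HA (expression) and streptavidin (reagent binding) fluorescence set low and high (top ~1%) gates. Polyreactivity labels come from the gate of origin. Genes were colony-PCR amplified, MiSeq 2 × 250 sequenced and filtered by CDR length.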

Sequence: QVQLVESGGGLVQAGGSLRLSCAASGRIFGYYVMGWYRQAPGKERELVAAISRSGGSTYYADSVKGRFTISRDNAKNTVYLQMNSLKPEDTAVYYCAKRVCTYGFSGYDYWGQGTQVTVSS
- polyreactivity (PSR sort gate): high polyreactivity

Sequence: QVQLVESGGGLVQAGGSLRLSCAASGRIFHFNAMGWYRQAPGKERELVATITKRGGRTYYADSVKGRFTISRDNAKNTVYLQMNSLKPEDTAVYYCNADQSRYSAVSGYDYWGQGTQVTVSS
- polyreactivity (PSR sort gate): high polyreactivity

Sequence: QVQLVESGGGLVQAGGSLRLSCAASGRIFHGNAMGWYRPAPGKERELVAAITSGGRTFYADSVKGRFTISRDNAKNTVYLQMNRLKPEDTAVYYCNAPSIAGYAEYNSHDYWGQGTQVTVSS
- polyreactivity (PSR sort gate): high polyreactivity

Sequence: QVQLVESGGGLVQAGGSLRLSCAASGRIFHGNAMGWYRQAPGKEREMVAAITSGGRTFYADSVKGRFTISRDNAKNTVYLQMNSLIPEDTAVFYCNAPSIAGYAEYNSHDYWGQGTQVTVSS
- polyreactivity (PSR sort gate): high polyreactivity

Sequence: QVQLVESGGGLVQAGGSLRLSCAASGRIFHGYAMGWYRQAPGKERELVGAINSSGGSTYYADSVKGRFTISRDNAKNTVYLQMNSLKPQDTAVYYCAADWVVSGNNPTVDTYFWYEYWGQGTQVTVSS
- polyreactivity (PSR sort gate): low polyreactivity

Sequence: QVQLVESGGGLVQAGGSLRLSCAASGRIFHIYAMGWYRQAPGKERELVAAISSDGSTYYADSVKGRFTISRDNAKNTVYLQMNSLKPEDTAVYYCAVESPQGRQCYEYWGQGTQVTVSS
- polyreactivity (PSR sort gate): low polyreactivity

Sequence: QVQLVESGGGLVQAGGSLRLSCAASGRIFHLYAMGWYRQAPGKERELVATITYDGGSTYYADSVKGRFTISRDNAKDTVYLQMNSLKPEDTAVYYCASPSPHVGLKWEYDYWGQGTQVTVSS
- polyreactivity (PSR sort gate): low polyreactivity

Sequence: QVQLVESGGGLVQAGGSLRLSCAASGRIFHNNAMGWYIQAPGKERELVAAISTGGSTNYADSVKGRFTISRDNAKNTVYLQMNSLKPEDTAVYYCAADHPVTYPTSKFDYWGQGTQVTVSS
- polyreactivity (PSR sort gate): low polyreactivity

Sequence: QVQLVESGGGLVQAGGSLRLSCAASGRIFHSYAMGWYRQAPGKERELVAAISSGGNTYYADSVKGRFTISRDNAKNTVYLQMNSLKREDTAVYYCARDWDFLYDGFHSDSYEYWGQGTQVTVSS
- polyreactivity (PSR sort gate): low polyreactivity

Sequence: QVQLVESGGGLVQAGGSLRLSCAASGRIFHYAIGWYRQAPGKESELVAGISKRGGSTYYADSVKGRFTISRDNAKNTVYLQMNSLKPEDTAVYYCSKEHYWTLNGLTSYYWGQGSQVTVSS
- polyreactivity (PSR sort gate): high polyreactivity

Sequence: QVQLVESGGGLVQAGGSLRLSCAASGRIFIIYAMGWYRQAPGKERELVAAITSGGGSTRYADSVKGRFPISRDNAKNTVYLQMNSLKPEDTAVYYCAAARITRGRRYDYWGQGTQVTVSS
- polyreactivity (PSR sort gate): high polyreactivity

Sequence: QVQLVESGGGLVQAGGSLRLSCAASGRIFIVNAMGWYRQAPGKERELVAAISYRGGSTYYADSVKGRFTISRDNAKNTVYLQMNSLKPEDTAVYYCNTDGYIYRYRFDYWGQGTQVTVSS
- polyreactivity (PSR sort gate): low polyreactivity

Sequence: QVQLVESGGGLVQAGGSLRLSCAASGRIFIWYAMGWYRQAPGKERELVAAIDRSGASTYYADSVKGRFTISRDNAKNTVYLQMNSLKPEDTAVYYCAARRDVLWFQYPYGYWGQGTQVTVSS
- polyreactivity (PSR sort gate): low polyreactivity

Sequence: QVQLVESGGGLVQAGGSLRLSCAASGRIFIWYTMGWYRQAPGNERELVASITGGGGSTYYADSVKGRFTISRDNAKNTVYFQMNSLKPEETAVYDCNAVYRRRYDYWGQGTQVTVSS
- polyreactivity (PSR sort gate): high polyreactivity

Sequence: QVQLVESGGGLVQAGGSLRLSCAASGRIFKANDMGWYRQAPGKERELVAITSSDSTNYADSVKGRFTISRDNAKNTVYLQMNSLKPEDTAVYYCAALSYYYSDRMDYWGQGTQVTVSS
- polyreactivity (PSR sort gate): low polyreactivity

Sequence: QVQLVESGGGLVQAGGSLRLSCAASGRIFKDTAMGWYRQAPGKDRELVAGITSIGDNTYYADSVKGRFTISRDNAKNTVYLQMHSLKPEDSAVYDCNALYPYVNGTVPRTTGEYDYWGQGTQVTVSS
- polyreactivity (PSR sort gate): low polyreactivity

Sequence: QVQLVESGGGLVQAGGSLRLSCAASGRIFKFNAMGWYRPAPGKERELVAAITTGGGSTYYADSVKGRFTISRDNAKNTVYLQMNSLKPEDSAVYYCATDRRHVYSSRRYYYWVQGTQVTVSS
- polyreactivity (PSR sort gate): high polyreactivity

Sequence: QVQLVESGGGLVQAGGSLRLSCAASGRIFKFNAMGWYRQAPGKERELVAATWSGGRTSYADSVKGRFTISRDNAKNTVYLQMNSLKPEDTAVYYCNAADWIVVQYDYWGQGTQVTVSS
- polyreactivity (PSR sort gate): low polyreactivity

Sequence: QVQLVESGGGLVQAGGSLRLSCAASGRIFKFNAMGWYRQAPGKVRELVAATWSGGRTSYADSVKGRFTISRDNAKNTVYLQMNSLKPEDTAVYYCNAADWIDVQYDYGGQGTQVTVSS
- polyreactivity (PSR sort gate): low polyreactivity

Sequence: QVQLVESGGGLVQAGGSLRLSCAASGRIFKGYAMGWYRQAPGKERELVAAITWRGGTTYYADSVKGRFTISRDNAKNTVYLQMNSLKPEDTAVYYCAAVTRRYVLSTFYYWGQGTQVTVSS
- polyreactivity (PSR sort gate): high polyreactivity

Sequence: QVQLVESGGGLVQAGGSLRLSCAASGRIFKGYVMGWYRQAPGKERELVAAISKSGGRTYYADPVKGRFTISRDNAKNTVYLQMNSLKPEDTAVYYCNAVGVVTYSFYYWGQGTQVTVSS
- polyreactivity (PSR sort gate): high polyreactivity

Sequence: QVQLVESGGGLVQAGGSLRLSCAASGRIFKHYAMGWSRQAPGKERELVAAITNGGRTNYADSVKGRFTISRDNAKNTVYLQMNSLKPADTAVYYGNSESSPPYSITKFDYWGQGTQVTVSS
- polyreactivity (PSR sort gate): low polyreactivity

Sequence: QVQLVESGGGLVQAGGSLRLSCAASGRIFKINAMGWSRQAPGKERDLVATISYSAGRTYYADSEKGRFTISRDSAKNTVYLQMNSLKPEDTAVYYCAARISSYWPYSLLDYWGQGTQVTVSS
- polyreactivity (PSR sort gate): high polyreactivity

Sequence: QVQLVESGGGLVQAGGSLRLSCAASGRIFKIYSMGWYRQAPGKERELVAAISYRGTSTYYADSVKGRFTISRDNAKNTVYLQMNSLKPEDTAVYYCARRDTYTRYYWGQGTQVTVSS
- polyreactivity (PSR sort gate): high polyreactivity

Sequence: QVQLVESGGGLVQAGGSLRLSCAASGRIFKLYAMGWYRQAPGKERELVAAISTSGGSTYYADSVKGRFTISRDNAKNTVYLQMNSLKPEDTAVFYCAADPLSGYDYWGQGTQVTVSS
- polyreactivity (PSR sort gate): high polyreactivity

Sequence: QVQLVESGGGLVQAGGSLRLSCAASGRIFKNNAMGWYRQAPGKERELVAVISGSGGSTYADSVKGRFTISRDNAKNTVYLQLNSLKPADTAVYYCAASRYYRIWYSLLQGYDYWGQGTQVTVSS
- polyreactivity (PSR sort gate): high polyreactivity

Sequence: QVQLVESGGGLVQAGGSLRLSCAASGRIFKNYVMGWYRQAPGKERELVAAITYSGGSTRYADSVKGRFTISRDNAKNTVYLQMNSLKPEDTAVYYCAASRTYYRTYTFYYWGQGTQVTVSS
- polyreactivity (PSR sort gate): high polyreactivity

Sequence: QVQLVESGGGLVQAGGSLRLSCAASGRIFKPNAMGWYRQAPVKEREFVARITRNTGSTYYADSVKGRFTISRDNAKNTVYLQMNSLKPEDTAVYYCAAGAPSYYYYWGQGTQVTVSS
- polyreactivity (PSR sort gate): high polyreactivity

Sequence: QVQLVESGGGLVQAGGSLRLSCAASGRIFKPYVMGWYRQAPGKERELGAAISWGGGRTYYADSVKGRFTISRDNAKNTVYLQMNSLKPEDTAVYYCAAPRRFDYDWGQGTQVTVSS
- polyreactivity (PSR sort gate): low polyreactivity

Sequence: QVQLVESGGGLVQAGGSLRLSCAASGRIFKPYVMGWYRQAPGKERELVAAITRGGSTNYADSVKGRFTISRDNAKNTVYLQMNSLKPEDTAVYDCAVYYYGTWGWDDYWGQGTQVTVSS
- polyreactivity (PSR sort gate): high polyreactivity

Sequence: QVQLVESGGGLVQAGGSLRLSCAASGRIFKQYTMGWYRQAPGKERELVAAITSSGAGTFYADSVKGRFTISRDNAKNTVYLQMNSLKPEDTAVDYCAAAYYYASRMDYWGQGTQVTVSS
- polyreactivity (PSR sort gate): high polyreactivity

Sequence: QVQLVESGGGLVQAGGSLRLSCAASGRIFKRNTMGWYRQAPGKERELVAAITYSGITYYADSVKGRFTISRDNAKNTVYLQMNSLKPEDTAVYYCAKVLYPIGSPRFEYWGQGTQVTVSS
- polyreactivity (PSR sort gate): low polyreactivity

Sequence: QVQLVESGGGLVQAGGSLRLSCAASGRIFKSNAMGWYRQAPGKERELVASISRSGSTNYADSVKGRFTISRDNAKNTVYLQMNSLKPEDTAVYYCAKDPDAKGGGYDYWGQGTQVTVSS
- polyreactivity (PSR sort gate): low polyreactivity

Sequence: QVQLVESGGGLVQAGGSLRLSCAASGRIFKSNAMGWYRQAPGKERELVASITASGGRTYYADSVKGRFTISRDNAKNTVYLQMNSLKPEDTAVYYCAAGRPFSKYGYWGQGTQVTVSS
- polyreactivity (PSR sort gate): high polyreactivity

Sequence: QVQLVESGGGLVQAGGSLRLSCAASGRIFKSYAMGWDRQAPGKERELVAAISRSGGRTYYADSVKGRFTISRDNAKNTVYLQMNSLKPEDTAVYYCAATTIVAPYWGQGTQVTVSS
- polyreactivity (PSR sort gate): low polyreactivity

Sequence: QVQLVESGGGLVQAGGSLRLSCAASGRIFKSYVMGWYRQAPGKERELVAAISWSGGTYYADSVMGRFTNSRDNAKNTVYLQMNCLKPEDTAVYYCAAYYLGSYNPLDYWGQGTQVTVSS
- polyreactivity (PSR sort gate): high polyreactivity

Sequence: QVQLVESGGGLVQAGGSLRLSCAASGRIFKTNAMGWYRQAPGKERELVAGINSSDGSTYYADSVKGRFTISRDIEKNTVYLQMNSLKPEDTAVYYCAAVRYYWGQGTQVTVSS
- polyreactivity (PSR sort gate): low polyreactivity

Sequence: QVQLVESGGGLVQAGGSLRLSCAASGRIFKTYAMGWYRQAPGKERELVAAISIRGGSTYYAESVKGRFTISRDNAKNTVYLQMNSLKPEDTAVYYCNALYGRQIVDYDYWGQGTQVTVSS
- polyreactivity (PSR sort gate): low polyreactivity

Sequence: QVQLVESGGGLVQAGGSLRLSCAASGRIFKWNAMGWYRQAPGKDRELVAAINLSTRSTYYADSVKGRFTISRDNAKNTVYLEMHSLKTVDTAVYYCAAVTYANYYYDAYYYWGQGSQVTVSS
- polyreactivity (PSR sort gate): high polyreactivity

Sequence: QVQLVESGGGLVQAGGSLRLSCAASGRIFKWYAMGWSRQAPGKEWEFVAGISGSAGRTYYADSVKGRCTISRDNAKNTVYLQMNSLKPEDTAVYYCAAVYYSSLYDYWGQGTQVTVSS
- polyreactivity (PSR sort gate): low polyreactivity

Sequence: QVQLVESGGGLVQAGGSLRLSCAASGRIFKWYAMGWYRQAPGKERELVAAISRSGGTTYYADSVKGRFTISRDNAKNTVYLQMNSLKPEDTAVYYCATRNIYFSSVDYWGQGTQVTVSS
- polyreactivity (PSR sort gate): high polyreactivity

Sequence: QVQLVESGGGLVQAGGSLRLSCAASGRIFKWYAMGWYRQAPGKVRELVAAISARGGRTYYADSVKGRFTISRDNAKNTVYLQMNSLKPEDTAVYYCATDYVKSDAYKYYYWGQGTQVTVSS
- polyreactivity (PSR sort gate): high polyreactivity

Sequence: QVQLVESGGGLVQAGGSLRLSCAASGRIFKYNAMGWYRQAPGKERELVAAISSSGGSTYYADSVKGRCTISRDNAKNTVYLQMNSLKPEDTAVYYCAARYNSRVYRYDYWGQGTQVTVSS
- polyreactivity (PSR sort gate): high polyreactivity
